{
  "source": "the domain aggregation screens of Martell et al. (2025)",
  "data": [
    {"test": "soluble fraction after stress (log2 fold change); higher = more stays soluble; pooled small domains, quantitative proteomics", "conditions": "stress: 75 degC", "values": [
      {"sequence": "HMYGHKLDSYESYVVSELRRWPFLSAPQIHDRLKEHFSDLPLVTPKTVFNFVNRLRLTHSLPKE", "soluble fraction (log2)": -3.38},
      {"sequence": "HMYGLSFLIGFTVVDRTYGDIGKVTAIDDSTVNTLMAVGDRLIPAQEAFITKIDNTKKIIYTQLPEGLL", "soluble fraction (log2)": -1.17},
      {"sequence": "HMYGTQTVNRGAVQPGMLVKHKDSTWTASANARGRLYLHRGVEMTYTRDLLVEVYLNGLGNGL", "soluble fraction (log2)": 0.158},
      {"sequence": "HMYHADLIGLRVETAAGEKLGTVKAVHNFGAGDVIEITGAEDKDGLMVPFTAEVVPEVDIENGRIVVS", "soluble fraction (log2)": -0.0762},
      {"sequence": "HMYHKKEKAQAANIEERIMILLSDGKHHHITEIKAIYVDEVITLNILEEMLAEEKVIIEGDMIMLVE", "soluble fraction (log2)": -3.64},
      {"sequence": "HMYKLTTQRRAILDVIIENHDKHLNPEEIYDIVKEKYPEIGIATVYRTLQLLEKLNIIYRLNFDDGYNRYE", "soluble fraction (log2)": -2.87},
      {"sequence": "HMYKLTYVVDGEVYLEETVSYGSKIAAAPAPEKEGYTFSGWEGLPEVMPAKDVTVSGSFTVN", "soluble fraction (log2)": -0.69},
      {"sequence": "HMYKMKDRIKKIMEMQRTTQQDFADQLKIAPATLSSIFTGRTRPTLAIVDAIKSRFPQISTDWLMFGKGDM", "soluble fraction (log2)": -0.151},
      {"sequence": "HMYKNAFITYDNNLYYLGSDSKMAIGWQSIGGNTYYFRNWGGMITGKQVIDGKTYVFDEDGKLVQSPD", "soluble fraction (log2)": -1.25},
      {"sequence": "HMYLNYQTIGKRIRLLRKQQHLTQMTLAEMVDKSPTYISLVENGQKGPSLETLIDVANALKVTMDVLLAEY", "soluble fraction (log2)": -4.94},
      {"sequence": "HMYLPPYMEVRAVMILDGKPMALMYIEGEGDGLIVSPGYKFDNGKGKVVSITPTKVVVLWAGTKMELG", "soluble fraction (log2)": -3.37},
      {"sequence": "HMYLYHDLSDEAKAMGDEYVSVEHLVLALIRYPNNAVKELFREFGITRERFLQVLSTIRGNQRVTSDNPEA", "soluble fraction (log2)": 0.0272},
      {"sequence": "HMYMFSGQRLKSLRKEKKMSQEKLGSLLNISKVAVSNWENAKSFPTMDNLNELAKVLEVEPHYF", "soluble fraction (log2)": -1.33},
      {"sequence": "HMYMKLSVKDAALFLSVSPETVYRWVKQEEIPYHTVNDQLRFNRAELLEWATARSLEVSPDLFVP", "soluble fraction (log2)": -3.84},
      {"sequence": "HMYMWQVEDLIRANGLDIERIKDSIIRPYELDEERKRELTQWYEDLIDMMRREGVAQSGHLQIN", "soluble fraction (log2)": -3.28},
      {"sequence": "HMYNMEELAGHTEKVYNSLPEELKLVIKLREIENMSYDEISLKTGMPIGTVRSRLHRAREILVDSLKDY", "soluble fraction (log2)": -1.28},
      {"sequence": "HMYQNRLFYTLKTGETVADLSKSQDINLSTIWSLNKHLYSSESEMMKAAPGQQIILPLKKLP", "soluble fraction (log2)": -0.247},
      {"sequence": "HMYQPLRDVIFETLRKAIVSGDIKPGERLMEVSLANQMGVSRTPVREAIRRLEAEGLVTMTPRKGTHVAE", "soluble fraction (log2)": -0.891},
      {"sequence": "HMYQRLPFSFANRYKMVLESQHPERAPILYYVEPLKSAAIIEVSRVVKNGFTPQAITLDEFDKKLTDAYQR", "soluble fraction (log2)": -1.43},
      {"sequence": "HMYRLSPSWRIVERDDGFEIYGGDDARFQLDPSPLVSRLAAGDAVTRDGLDPTGAIEFEQLLSAGMIRPEI", "soluble fraction (log2)": -0.263},
      {"sequence": "HMYRYTTFKVKEADTLLPFIQKSLNGISHNRAKAILTGGGVLVDKKITRAYDFALRPGMTVEISKSKP", "soluble fraction (log2)": -1.72},
      {"sequence": "HMYRYYSTLRPITPGAYPKPADNPAMLIHNFDNREYVGKIGREAWGYVEYNNPLTKEQIEAFDFVAE", "soluble fraction (log2)": 0.0626},
      {"sequence": "HMYSDIERAMTNAPEQFANKQAVLDFLNKNRIKKSEVDDYRIASLLKLYDDASPISKTEIISQVRT", "soluble fraction (log2)": 0.396},
      {"sequence": "HMYSDQRMEIFLEHLPDFIEQLSHKHVTRQMVWEDYRMIYPDGYGKSQFFFHLAQNLKAQKP", "soluble fraction (log2)": -3.21},
      {"sequence": "HMYSYSFTSSEGSTFEGQLIRVEESQVTILRYADQKEFSIPKSRFIEADQVYFERWAIENPQL", "soluble fraction (log2)": -4.18},
      {"sequence": "HMYSYSGSVSNTHDVPVSVVLKDAEGVAIASWDLQAKQSLNISAKDIATSSGTIEITGDGVSETKTVTFTK", "soluble fraction (log2)": 1.03},
      {"sequence": "HMYTVKELSRLTGLTPRTLRYYDAIGLLSPARNRDNDYRLYGGAEVDRLQEILLYREMGLPLEEIGRILD", "soluble fraction (log2)": -1.51},
      {"sequence": "HMYTVQPHESLWSIAASQLGDGHRFTEIVDLNQELLGGKANFIKPGWVLQIP", "soluble fraction (log2)": -0.362},
      {"sequence": "HMYTVVVGDSPSLIADKTGVPLKELTAMNPNLSDNFLPGKQLL", "soluble fraction (log2)": -0.0135},
      {"sequence": "HMYVEVPNFIGVPLVKVQSELASLGLVFNKSVVYQTSPYLKGNILDQRPLPGEVVPLNTEMSFTVSSGPA", "soluble fraction (log2)": -0.5},
      {"sequence": "HMYVKIAADAAMPYTIKRVVTDYSSAALDAAYDGSLPKWLTISSSTKDAGSGLYRHEIIYTVTAHPE", "soluble fraction (log2)": -0.666},
      {"sequence": "HMYVYEPGEFAVRGSILDVYSYASEFPYRIDFFGDDVESIRTFEVQTQLSKEAKDRVSIVPDTEQ", "soluble fraction (log2)": -0.258},
      {"sequence": "HMYYNDEELDGYRGTPSDAYSDNAVEEFREVLYTLREDEVSGWVRSLQLRGIFLPDAIKDETFLI", "soluble fraction (log2)": -1.33},
      {"sequence": "HMYYTAPDGRKREILDAALRLIAAGGPDSLTYRRVADEAGVPLGSLTYYFEAREDLIREAFRLYIAEASR", "soluble fraction (log2)": -3.16}
    ]}
  ]
}
